Results: patent US20110300138A1 (published 2011)

Experiments:
[1] = target: human TSH receptor (wild type), expressed on transfected CHO cells (human) (UniProt P16473); test: cell-based or functional assay
[2] = target: human TSH receptor (full length, wild type) expressed on CHO cells (human) (UniProt P16473); test: cell-based or functional assay
[3] = target: human TSH receptor (TSHR), wild type, expressed in CHO cells (human) (UniProt P16473); test: cell-based or functional assay
[4] = target: TSHR260-AP (human); test: TSHR260-AP bridge ELISA (full length TSHR on wells, TSHR260-AP in solution); IgG 0.05 µg/mL diluted in HBD serum
[5] = target: TSHR260-AP (human); test: TSHR260-AP bridge ELISA (full length TSHR on wells, TSHR260-AP in solution); IgG 1 µg/mL diluted in HBD serum
[6] = target: TSHR260-AP (human); test: TSHR260-AP bridge ELISA (full length TSHR on wells, TSHR260-AP in solution); IgG 0.05 µg/mL diluted in assay buffer
[7] = target: TSHR260-alkaline phosphatase (TSHR260-AP) (human) (UniProt P05187); test: TSHR260-AP bridge ELISA, full length TSHR on wells; 1 µg/mL, diluted in assay buffer
[8] = target: human TSH receptor (full length, wild type) expressed in CHO cells (human) (UniProt P16473); test: cell-based or functional assay
[9] = target: TSHR260-AP (human); test: TSHR260-AP bridge ELISA (full length TSHR on wells, TSHR260-AP in solution); IgG 0.01 µg/mL diluted in HBD serum
[10] = target: human TSHR (wild type, full length) expressed in CHO cells (human) (UniProt P16473); test: cell-based or functional assay
[11] = target: TSHR260-AP (human); test: TSHR260-AP bridge ELISA (full length TSHR on wells, TSHR260-AP in solution); IgG 0.01 µg/mL diluted in assay buffer
[12] = target: TSHR260-AP (human); test: TSHR260-AP bridge ELISA (full length TSHR on wells, TSHR260-AP in solution); IgG 0.5 µg/mL diluted in assay buffer

B1: 5C9 IgG (antibody, from another filing, V domains shown)
VH: EVQLVESGGGLIQPGGSLRLSCAASGFTVSSNYMSWVRQAPGKGLEWVSVTYSGGSTSYADSVKGRFTISRDNSKNTLYLQMNSLRAEDTAVYYCARGGRYCSSISCYARSGCDYWGQGTLVTVSS
VL: AIQMTQSPSSLSASVGDRVTITCRASQSISNYLNWYQQKPGKAPKLLIYAASSLQSGVPSRFSGSGSGTDFTLTISSLQPEDFATYYCQQSYSSPSTTFGQGTKLEIK
B1 showed a Cyclic AMP concentration; pTSH 3 ng/mL + 100 µg/mL 5C9 [1] of 0.5 pmol/mL, a Cyclic AMP production (constitutive activity); 0.1 µg/mL 5C9 IgG [1] of 68.2 pmol/mL and a Cyclic AMP production (constitutive activity); 0.2 µg/mL 5C9 IgG [1] of 58.8 pmol/mL. The Cyclic AMP production (constitutive activity); 1 µg/mL 5C9 IgG [1] was 31.4 pmol/mL, the Cyclic AMP production (constitutive activity); 2 µg/mL 5C9 IgG [1] was 31.8 pmol/mL and the % Inhibition of M22 IgG (3 ng/mL) stimulation; 0.001 µg/ml 5C9 IgG [2] was 0%. It also gave a % Inhibition of M22 IgG (3 ng/mL) stimulation; 0.01 µg/ml 5C9 IgG [2] of 0%, a % Inhibition of M22 IgG (3 ng/mL) stimulation; 0.1 µg/ml 5C9 IgG [2] of 91.2% and a % Inhibition of M22 IgG (3 ng/mL) stimulation; 0.5 µg/ml 5C9 IgG [2] of 97%. It also gave a % Inhibition of M22 IgG (3 ng/mL) stimulation; 1 µg/ml 5C9 IgG [2] of 97.6%, a % Inhibition of M22 IgG (3 ng/mL) stimulation; 5 µg/ml 5C9 IgG [2] of 99.4% and a % Inhibition of M22 IgG (3 ng/mL) stimulation; 10 µg/ml 5C9 IgG [2] of 99.1%. It also gave a % Inhibition of M22 IgG (3 ng/mL) stimulation; 50 µg/ml 5C9 IgG [2] of 99.1%, a % Inhibition of M22 IgG (3 ng/mL) stimulation; 100 µg/ml 5C9 IgG [2] of 98.8% and a Cyclic AMP concentration; 3 ng/mL M22 IgG + 0.001 µg/ml 5C9 IgG [2] of 39.3 pmol/mL. It also gave a Cyclic AMP concentration; 3 ng/mL M22 IgG + 0.01 µg/ml 5C9 IgG [2] of 42.3 pmol/mL, a Cyclic AMP concentration; 3 ng/mL M22 IgG + 0.1 µg/ml 5C9 IgG [2] of 2.9 pmol/mL and a Cyclic AMP concentration; 3 ng/mL M22 IgG + 0.5 µg/ml 5C9 IgG [2] of 1 pmol/mL. The Cyclic AMP concentration; 3 ng/mL M22 IgG + 1 µg/ml 5C9 IgG [2] was 0.8 pmol/mL, the Cyclic AMP concentration; 3 ng/mL M22 IgG + 5 µg/ml 5C9 IgG [2] was 0.2 pmol/mL and the Cyclic AMP concentration; 3 ng/mL M22 IgG + 10 µg/ml 5C9 IgG [2] was 0.3 pmol/mL. For the same binder, the Cyclic AMP concentration; 3 ng/mL M22 IgG + 50 µg/ml 5C9 IgG [2] was 0.3 pmol/mL, the Cyclic AMP concentration; 3 ng/mL M22 IgG + 100 µg/ml 5C9 IgG [2] was 0.4 pmol/mL and the Cyclic AMP concentration; 5C9 IgG 100 µg/mL alone [2] was 0.5 pmol/mL. It also gave a % Inhibition of constitutive activity; 0.001 µg/mL 5C9 IgG [3] of 0%, a % Inhibition of constitutive activity; 0.01 µg/mL 5C9 IgG [3] of 1% and a % Inhibition of constitutive activity; 0.1 µg/mL 5C9 IgG [3] of 13%. For the same binder, the % Inhibition of constitutive activity; 0.3 µg/mL 5C9 IgG [3] was 50%, the % Inhibition of constitutive activity; 1 µg/mL 5C9 IgG [3] was 61% and the % Inhibition of constitutive activity; 3 µg/mL 5C9 IgG [3] was 63%. The % Inhibition of constitutive activity; 10 µg/mL 5C9 IgG [3] was 56%, the % Inhibition of constitutive activity; 100 µg/mL 5C9 IgG [3] was 52% and the Cyclic AMP concentration (constitutive activity); 0.001 µg/mL 5C9 IgG [3] was 19.1 pmol/mL. For the same binder, the Cyclic AMP concentration (constitutive activity); 0.01 µg/mL 5C9 IgG [3] was 18.6 pmol/mL, the Cyclic AMP concentration (constitutive activity); 0.1 µg/mL 5C9 IgG [3] was 16.3 pmol/mL and the Cyclic AMP concentration (constitutive activity); 0.3 µg/mL 5C9 IgG [3] was 9.3 pmol/mL. It also gave a Cyclic AMP concentration (constitutive activity); 1 µg/mL 5C9 IgG [3] of 7.4 pmol/mL, a Cyclic AMP concentration (constitutive activity); 3 µg/mL 5C9 IgG [3] of 6.9 pmol/mL and a Cyclic AMP concentration (constitutive activity); 10 µg/mL 5C9 IgG [3] of 8.3 pmol/mL. The Cyclic AMP concentration (constitutive activity); 100 µg/mL 5C9 IgG [3] was 9 pmol/mL, the Mean absorbance at 405 nm (absorbance at 405 nm) [4] was -0.003 and the Mean absorbance at 405 nm (absorbance at 405 nm) [5] was 0.045. For the same binder, the Mean absorbance at 405 nm (absorbance at 405 nm) [6] was -0.008, the Mean absorbance at 405 nm (absorbance at 405 nm) [7] was 0.011 and the % Inhibition; T7 serum + 100 µg/mL 5C9 IgG [8] was 97.7%. The % Inhibition; T8 serum + 100 µg/mL 5C9 IgG [8] was 97.9%, the % Inhibition; T9 serum + 100 µg/mL 5C9 IgG [8] was 94.7% and the Cyclic AMP concentration; HBD + 100 µg/mL 5C9 IgG [8] was 2.7 pmol/mL. It also gave a Cyclic AMP concentration; T7 serum + 100 µg/mL 5C9 IgG [8] of 2.1 pmol/mL, a Cyclic AMP concentration; T8 serum + 100 µg/mL 5C9 IgG [8] of 1.8 pmol/mL and a Cyclic AMP concentration; T9 serum + 100 µg/mL 5C9 IgG [8] of 3 pmol/mL. It also gave a Mean absorbance at 405 nm (absorbance at 405 nm) [9] of 0.017, a % Inhibition of T13 serum stimulation; 100 µg/mL 5C9 IgG [10] of 97.5% and a % Inhibition of T14 serum stimulation; 100 µg/mL 5C9 IgG [10] of 94.9%. It also gave a % Inhibition of T15 serum stimulation; 100 µg/mL 5C9 IgG [10] of 96.9%, a Cyclic AMP concentration; 100 µg/mL 5C9 IgG alone [10] of 0.9 pmol/mL and a Cyclic AMP concentration; HBD + 100 µg/mL 5C9 IgG [10] of 1 pmol/mL. It also gave a Cyclic AMP concentration; T13 serum + 100 µg/mL 5C9 IgG [10] of 1.2 pmol/mL, a Cyclic AMP concentration; T14 serum + 100 µg/mL 5C9 IgG [10] of 1.4 pmol/mL and a Cyclic AMP concentration; T15 serum + 100 µg/mL 5C9 IgG [10] of 1.6 pmol/mL. It also gave a Mean absorbance at 405 nm (absorbance at 405 nm) [11] of -0.001 and a Mean absorbance at 405 nm (absorbance at 405 nm) [12] of -0.005.
